Reference: patent publication US20230357447A1 (JANUX THERAPEUTICS, published 2023)

Tests used:
[1] = molecular target: T1, Anti-CD28 scFv (VH-linker 1-VL) (biotinylated for capture on neutravidin plates); assay: phage ELISA, scFv captured on plate;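 further: crude clonal phage supernatants added to wells preincubated with soluble CD28 or with blocking buffer only, bound phage read out by HRP-linked anti-M13 antibody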
Description: (§1) Clonal phage were harvested as crude supernatants and screened via standard enzyme linked immunosorbent assays (ELISAs). […] Prior to the addition of clonal phage, wells were incubated with blocking buffer and CD28 soluble protein or blocking buffer alone. Without washing or aspirating, clonal phage supernatants were then added to the wells and incubated for a short time. Wells were then washed followed by detection of bound phage using a horse radish peroxidase conjugated anti-M13 antibody.

[2] = molecular target: T1, Anti-CD28 scFv (VH-linker 1-VL); assay: phage ELISA, scFv captured on plate, competitor soluble CD28;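 further: crude clonal phage supernatants added to wells pre-incubated with soluble CD28 or with blocking buffer only as control, bound phage read out with HRP-linked anti-M13 antibody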
Description: as §1

T1 sequence (scFv, as listed by the source): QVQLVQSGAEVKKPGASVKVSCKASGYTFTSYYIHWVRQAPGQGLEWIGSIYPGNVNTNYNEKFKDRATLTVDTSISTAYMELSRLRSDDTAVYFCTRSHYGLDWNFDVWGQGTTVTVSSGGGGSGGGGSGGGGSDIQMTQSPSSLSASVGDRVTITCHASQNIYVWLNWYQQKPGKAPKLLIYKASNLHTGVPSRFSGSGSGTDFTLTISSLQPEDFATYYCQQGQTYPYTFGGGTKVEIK

Binder	Phage binding ELISA CD28 scFv signal [1]	Phage binding ELISA CD28 scFv signal in presence of CD28 [2]
LDWCPLNLWDLCYF [Phage-143]	2.03	0.095
MDWCPKFLWHECFS [Phage-135]	2.28	0.142
MDWCPRSLWIYCFN [Phage-131]	2.34	0.401
MDFCPISLWHECFF [Phage-151]	1.58	0.129
MDWCPMDLWDVCFN [Phage-140]	2.15	0.263
MDWCPRHLWSECFY [Phage-146]	1.92	0.199
MDWCPRDLWHVCFF [Phage-121]	2.41	0.268
LDWCPRDLWHVCFF [Phage-178]	0.61	0.105
MDWCPSYLWTVCFA [Phage-129]	2.34	0.096
MDWCPTNLWHECFA [Phage-138]	2.16	0.096
MDWCPRYLWFECFS [Phage-117]	2.46	0.235
MDWCPRHLWNVCFS [Phage-150]	1.61	0.176
MDWCPRHMWNVCFS [Phage-204]	2.25	0.13
MDWCPKYLWDKCFH [Phage-152]	1.54	0.109
MDWCPRDLWNVCFA [Phage-154]	1.38	0.145
MDWCPRDLWDVCFA [Phage-139]	2.16	0.28
MDWCPRDLWNVCFN [Phage-169]	0.74	0.108
MDWCPRDLWAVCFA [Phage-149]	1.67	0.089
MDWCPRPLWDMCFF [Phage-124]	2.4	0.138
MHWCPRDLWVVCFN [Phage-147]	1.83	0.112
MDWCPRDLWIECFF [Phage-128]	2.37	0.137
MDWCPVILWDFCFN [Phage-142]	2.03	0.173
MDWCPRNMWTVCFL [Phage-211]	1.12	–
MDWCPTYLWFECFN [Phage-132]	2.33	0.224
MDWCPSYLWHECFA [Phage-134]	2.28	0.198
MDWCPRALWNECFA [Phage-127]	2.38	0.375

Binder	Phage binding ELISA CD28 scFv signal [1]	Phage binding ELISA CD28 scFv signal in presence of CD28 [2]
MDWCPIHLWNECFA [Phage-123]	2.4	0.203
MHWCPLHLWNECYH [Phage-155]	1.37	0.113
MHWCPRALWHECFN [Phage-160]	1.18	0.144
MDWCPRHLWYACFN [Phage-144]	2.01	0.159
MDWCPRDLWHACFS [Phage-120]	2.41	0.173
MDWCPKHLWHQCFH [Phage-156]	1.35	0.108
MNWCPTDLWHECFN [Phage-162]	1.09	0.095
MDWCPRSLWNVCFF [Phage-141]	2.13	0.356
MDWCPVSLWHVCFY [Phage-125]	2.4	0.409
MHWCPIYLWDECFN [Phage-136]	2.23	0.193
MHWCPRYLWDECFN [Phage-180]	0.55	0.127
MDWCPRYLWDACFF [Phage-130]	2.34	0.168
MDWCPRDLWDQCYA [Phage-122]	2.41	0.201
MDWCPRFLWNECFN [Phage-126]	2.4	0.503
MDWCPRYLWHMCYS [Phage-119]	2.42	1.17
MDWCPRHLWDECFF [Phage-118]	2.46	0.663
MDWCPRHLWDLCFF [Phage-153]	1.4	0.182
MDWCPRHLWDQCFA [Phage-161]	1.12	0.144
MDWCPRHLWDLCFA [Phage-166]	0.925	0.096
MDWCPRFLWDECFF [Phage-133]	2.28	0.246
MHWCPEYLWNECFA [Phage-148]	1.69	0.092
MDWCPRYLWTECFF [Phage-158]	1.26	0.244
MAWCPMNLWDQCFF [Phage-159]	1.2	0.145
MDWCPKHLWIECFA [Phage-145]	1.98	0.132
MDWCPRSLWSYCFH [Phage-157]	1.33	0.152
MDWCPRYLWHECFH [Phage-137]	2.19	0.308
